From patent US20130274129

System: AvrBs3-KRAB
Experiment: cell_activity
Conditions: two copies of TAL site, LacZ reporter, 293FT; around 40% with one copy

“AvrBs3 TAL binding site in CMV promoter reporter” was tested, and the activity was 70 % repression.
